B1: LINE1-full (parent)
chain: UACGUAGGUGGUUUUCCCCUGAUAGUGCUAAGGGGGCCUGGAAGUUUGGACUGGGCAGAGCUCAACACAGCGUGGCAAAGUGGCUGUGGCUAGACUGCCUCUCUGGAUUCCUCGUCACUCAGCAGGGCAUCUCUGAGAGAAAUGCC

Experimental findings from the RNAGym collection of RNA variant scans (doi:10.7554/elife.90254) are described below.

This series covers variants of B1. Kind of series: self-cleavage, relative activity (ratio to wild type); higher = more cleavage; in vitro, sequencing; the parent is a self-cleaving ribozyme.
On to UACGUAGGUGGUUUUCCCCUGAUAGUGCUAAGGGGGCCUGGAAGUUUGGACUGGGCAGAGCUCAACACAGCGUGGCAAAGUGGCUGUAGCUAGACCGCCUCUCUGGAUUCCUCGUCACUCAGCAGGGCAUCUCUGAGAGAAAUGCC [G88A U96C], for which the self-cleavage came out at 0.02.
On to UACGUAGGUGGUUUUCCCCUGAUAGUGCUAAGGGGGCCUGGAAGUUUGGACUGGGCAGAGCUCAACACAGCGUGGCAAAGUGGCUGUAGCUAGACUGCCUCUCUGGAUUUCUCGUCACUCAGCAGGGCAUCUCUGAGAGAAAUGCC [G88A C110U], for which the self-cleavage came out at 0.04.
For UACGUAGGUGGUUUUCCCCUGAUAGUGCUAAGGGGGCCUGGAAGUUUGGACUGGGCAGAGCUCAACACAGCGUGGCAAAGUGGCUGUCGCUAGACUGCCUCUCUAGAUUCCUCGUCACUCAGCAGGGCAUCUCUGAGAGAAAUGCC [G88C G105A], the self-cleavage was determined as 0.06.
UACGUAGGUGGUUUUCCCCUGAUAGUGCUAAGGGGGCCUGGAAGUUUGGACUGGGCAGAGCUCAACACAGCGUGGCAAAGUGGCUGUAGCUAGACUGCCUCUCUGGAUUCCUCGUCACUCAACAGGGCAUCUCUGAGAGAAAUGCC [G88A G122A]: the self-cleavage amounted to 0.07.
The result for UACGUAGGUGGUUUUCCCCUGAUAGUGCUAAGGGGGCCUGGAAGUUUGGACUGGGCAGAGCUCAACACAGCGUGGCAAAGUGGCUGUCGCUAGACUGCCUCUCUGGAUUCCUCGUCACUCAGCAGGGCGUCUCUGAGAGAAAUGCC [G88C A129G] reads 0.12.
For the variant UACGUAGGUGGUUUUCCCCUGAUAGUGCUAAGGGGGCCUGGAAGUUUGGACUGGGCAGAGCUCAACACAGCGUGGCAAAGUGGCUGUAGCUAGACUGCCUCUCUGGAUUCCUCAUCACUCAGCAGGGCAUCUCUGAGAGAAAUGCC [G88A G114A], the self-cleavage amounted to 0.08.
With UACGUAGGUGGUUUUCCCCUGAUAGUGCUAAGGGGGCCUGGAAGUUUGGACUGGGCAGAGCUCAACACAGCGUGGCAAAGUGGCUGUUGCUAGACUGCCUCUCUGGAUUCCUCGUCACUCAGCAGGGCAUCUCUGAGGGAAAUGCC [G88U A138G], the self-cleavage is 0.06.
With UACGUAGGUGGUUUUCCCCUGAUAGUGCUAAGGGGGCCUGGAAGUUUGGACUGGGCAGAGCUCAACACAGCGUGGCAAAGUGGCUGUCGCUAGACUGCCUCUCUGGAUUCCUCGUCACUCAGCAGGGCAUCCCUGAGAGAAAUGCC [G88C U132C], the self-cleavage worked out at 0.09.
As to UACGUAGGUGGUUUUCCCCUGAUAGUGCUAAGGGGGCCUGGAAGUUUGGACUGGGCAGAGCUCAACACAGCGUGGCAAAGUGGCUGUUGCUAGACUGCCCCUCUGGAUUCCUCGUCACUCAGCAGGGCAUCUCUGAGAGAAAUGCC [G88U U100C], the self-cleavage is 0.04.
Turning to UACGUAGGUGGUUUUCCCCUGAUAGUGCUAAGGGGGCCUGGAAGUUUGGACUGGGCAGAGCUCAACACAGCGUGGCAAAGUGGCUGUAGCUAGACUGCCUCUCCGGAUUCCUCGUCACUCAGCAGGGCAUCUCUGAGAGAAAUGCC [G88A U104C], the self-cleavage worked out at 0.15.
The result for UACGUAGGUGGUUUUCCCCUGAUAGUGCUAAGGGGGCCUGGAAGUUUGGACUGGGCAGAGCUCAACACAGCGUGGCAAAGUGGCUGUAGCUAGACUGCCUCUCUGGAUUCCUCGUCACUUAGCAGGGCAUCUCUGAGAGAAAUGCC [G88A C120U] reads 0.09; that for UACGUAGGUGGUUUUCCCCUGAUAGUGCUAAGGGGGCCUGGAAGUUUGGACUGGGCAGAGCUCAACACAGCGUGGCAAAGUGGCUGUAGCUAGACUGCCUCUCUGGAUUCCUCGUCACUCAGCAGGGCAUCUCCGAGAGAAAUGCC [G88A U134C], 0.08.
With UACGUAGGUGGUUUUCCCCUGAUAGUGCUAAGGGGGCCUGGAAGUUUGGACUGGGCAGAGCUCAACACAGCGUGGCAAAGUGGCUGUAGCUAGACUGCCUCUCUGGAUUCCUCGUCACUCAGCAGGGCAUCUCAGAGAGAAAUGCC [G88A U134A], the self-cleavage is 0.06.
UACGUAGGUGGUUUUCCCCUGAUAGUGCUAAGGGGGCCUGGAAGUUUGGACUGGGCAGAGCUCAACACAGCGUGGCAAAGUGGCUGUCGCUAGACUGCCUCUCUGGAUUCCUCGUCACUCAGCACGGCAUCUCUGAGAGAAAUGCC [G88C G125C]: the self-cleavage stood at 0.06.
In the case of UACGUAGGUGGUUUUCCCCUGAUAGUGCUAAGGGGGCCUGGAAGUUUGGACUGGGCAGAGCUCAACACAGCGUGGCAAAGUGGCUGUAGCUAGACUGCCUCUCUGGAUUCCUCGUCACUCAGCAGGGCAUCUCUGAGAGAAAUGCU [G88A C146U], the self-cleavage turned out to be 0.07.
With UACGUAGGUGGUUUUCCCCUGAUAGUGCUAAGGGGGCCUGGAAGUUUGGACUGGGCAGAGCUCAACACAGCGUGGCAAAGUGGCUGUAGCCAGACUGCCUCUCUGGAUUCCUCGUCACUCAGCAGGGCAUCUCUGAGAGAAAUGCC [G88A U91C], the self-cleavage came to 0.05.
As for UACGUAGGUGGUUUUCCCCUGAUAGUGCUAAGGGGGCCUGGAAGUUUGGACUGGGCAGAGCUCAACACAGCGUGGCAAAGUGGCUGUAGCUAGACUGCCUCUCUGGAUUCCUCGUCACUCAGCAGGGCAUCUCUGAGAGAAAAGCC [G88A U143A], the self-cleavage amounted to 0.07.
Consider UACGUAGGUGGUUUUCCCCUGAUAGUGCUAAGGGGGCCUGGAAGUUUGGACUGGGCAGAGCUCAACACAGCGUGGCAAAGUGGCUGUCGCUAGACUGCCUCUCUGGAUUCCUCGUCACUCAGCAGGGCAUCUCUGAGAGGAAUGCC [G88C A140G], for which the self-cleavage is 0.
UACGUAGGUGGUUUUCCCCUGAUAGUGCUAAGGGGGCCUGGAAGUUUGGACUGGGCAGAGCUCAACACAGCGUGGCAAAGUGGCUGUAGCUAGACUGCCACUCUGGAUUCCUCGUCACUCAGCAGGGCAUCUCUGAGAGAAAUGCC [G88A U100A]: the self-cleavage came to 0.07.
The result for UACGUAGGUGGUUUUCCCCUGAUAGUGCUAAGGGGGCCUGGAAGUUUGGACUGGGCAGAGCUCAACACAGCGUGGCAAAGUGGCUGUAGCUAGACUGCCUCUCUGGAUUCCUCGUCACUCAGCAGGGCACCUCUGAGAGAAAUGCC [G88A U130C] reads 0.01.
